Consider 25 molecules from patent US7056679 (ANTYRA, dated 2006).

The target of one assay is T1, DGI-2 polypeptide (UniProt Q15004 1-111, limits assumed).
T1 construct: Soluble recombinant protein coated at 500 ng/well; vector tag of pIVEX2.3-MCS not described for this construct; also called KIAA0101
T1 sequence (looked up): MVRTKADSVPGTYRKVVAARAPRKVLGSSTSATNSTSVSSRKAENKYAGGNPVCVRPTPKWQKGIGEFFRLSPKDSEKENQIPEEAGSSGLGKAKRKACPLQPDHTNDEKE
Description: phage ELISA. As for the experimental part: (§1) For analysis of individual target binders, colonies were picked and phage prepared as described above using helper phage, M13KO7. Ninety-six-well microtiter plates were coated with 500 ng/well of specific target protein, 500 ng/well lactate dehydrogenase (LDH) irrelevant or non-specific target, 500 ng/well of positive control antibody raised against ETAG, and negative control of non-fat milk powder-PBS 2% at 4° C. overnight. Plates were then blocked with 350 microliters/well PBS containing 2% non-fat milk for 1 hr at room temperature. One hundred microliters per well of phage from isolated clones were added and plates were incubated at room temperature for 2 hr after centrifuging samples for 20 minutes at 3500 rpm at 4° C. The phage solution was then removed, and the wells were washed three times with PBS at room temperature. Antibody raised against M13 conjugated to horseradish peroxidase (Pharmacia) was diluted 1:3000 in PBS-Tween and added to each well (100 µl/well). Incubation was for 1 hr at room temperature, followed by washing with PBS-(0.5%) Tween 3 times as described. Color was developed by addition of ABTS solution (100 µl/well; Boehringer, Indianapolis, Ind.). Plates were analyzed at 405 nm. A clone was considered "positive" if the $A405$ of the well was $\geq$2-fold over background.
(In general: ELISA stands for enzyme-linked immunosorbent assay.)

In assay [1] the target is T2, antibody raised against ETAG.
T2 construct: Coated at 500 ng/well; also called E-tag antibody
Description: phage ELISA. As to the method: as §1

The target of assay [2] is T3, lactate dehydrogenase (LDH).
T3 construct: Coated at 500 ng/well as non-specific target; also called LDH polypeptide
The experiment in a line: phage ELISA. As for the experimental part: as §1

The target in the next assay is T4, DGI-2 (UniProt Q15004 1-111, limits assumed).
T4 construct: Soluble recombinant DGI-2 made by in vitro translation (RTS, pIVEX2.3-MCS vector) and coated on plates for the ELISA; vector tag not described; also called KIAA0101; DGI-2 polypeptide
T4 sequence (looked up): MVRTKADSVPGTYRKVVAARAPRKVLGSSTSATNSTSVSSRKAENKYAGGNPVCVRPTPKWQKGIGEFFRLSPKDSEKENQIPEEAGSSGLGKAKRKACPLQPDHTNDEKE
Description: phage ELISA, coated DGI-2. The method in brief:
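Phage from individual clones were bound for 2 h at RT to wells coated with 500 ng DGI-2, LDH (non-specific), anti-E-tag antibody (positive control) or milk (negative control). Bound phage were detected with HRP-anti-M13 and ABTS at A405; positive clones gave ≥2-fold signal over background.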

No end group written: not given here.

For the molecule VVHTRAWGSWAYGFVLRNRGAAAGAPVPYPDPLEPRP [DGI-2-20F-PP-F10], in the assay with DGI-2 polypeptide, the “DGI-2 (OD)” value came out at 3.5 OD and the DGI-2/LDH was 2.8 ratio. Besides, the “ETAG (OD)” value in assay [1] was found to be 42.5 OD. In addition, the “LDH (OD)” value in assay [2] was determined as 1.3 OD.

ERVSKCVGRGSGRSVGQFGGAAAGAPVPYPDPLEPRP [DGI-2-20F-PP-F1]: in the assay with DGI-2 polypeptide, the “DGI-2 (OD)” value came out at 3 OD and the DGI-2/LDH stood at 3.4 ratio. Moreover, the “ETAG (OD)” value in assay [1] was 11.1 OD. Also, the “LDH (OD)” value in assay [2] stood at 0.9 OD.

Consider SSVWATWGSDLRTFGSVGFLAAAGAPVPYPDPLEPRP [DGI-2-20F-PP-C7], for which, in the assay with DGI-2 polypeptide, the “DGI-2 (OD)” value is 3 OD and the DGI-2/LDH amounted to 2.6 ratio. For the same molecule, in assay [1], the “ETAG (OD)” value worked out at 11 OD. The “LDH (OD)” value in assay [2] was found to be 1.1 OD.

Consider GLYQRGLAPRCRGERFGVRNAAAGAPVPYPDPLEPRP [DGI-2-20F-PP-C2], for which, in the assay with DGI-2 polypeptide, the “DGI-2 (OD)” value is 2.7 OD and the DGI-2/LDH worked out at 2.5 ratio. Also, in assay [1], the “ETAG (OD)” value amounted to 6 OD. Besides, the “LDH (OD)” value in assay [2] stood at 1.1 OD.

In the case of VRAVYSRDAYNEVGRWMRVGIAAAGAPVPYPDPLEPRP [DGI-2-20F-PP-D9], in the assay with DGI-2 polypeptide, the “DGI-2 (OD)” value was 2.9 OD and the DGI-2/LDH turned out to be 2.9 ratio. In assay [1], the “ETAG (OD)” value is 9 OD. In addition, the “LDH (OD)” value in assay [2] worked out at 1 OD.

On to RVSYEMLGRRRRSMHGSSMRAAAGAPVPYPDPLEPRP [DGI-2-20F-PP-A4], for which, in the assay with DGI-2 polypeptide, the “DGI-2 (OD)” value was 2.7 OD and the DGI-2/LDH worked out at 2.6 ratio. In assay [1], the “ETAG (OD)” value worked out at 6.6 OD. In addition, the “LDH (OD)” value in assay [2] turned out to be 1.1 OD.

Take RERWGTAWNLWTEGVVDVRP (on M13 phage, pIII fusion with E-tag) [DGI-2-20F-3-B5]: the binding result with DGI-2 is listed as “binds”.

On to VCSGGKGTWLEIPDRVRSSTAAAGAPVPYPDPLEPRP [DGI-2-20F-PP-A22], for which, in the assay with DGI-2 polypeptide, the “DGI-2 (OD)” value is 3.3 OD and the DGI-2/LDH was 3.1 ratio. For the same molecule, the “ETAG (OD)” value in assay [1] came out at 44.1 OD. For the same molecule, the “LDH (OD)” value in assay [2] was 1 OD.

Consider VCGQRVARMQLNKTIRKLDSAAAGAPVPYPDPLEPRP [DGI-2-20F-PP-A6], for which, in the assay with DGI-2 polypeptide, the “DGI-2 (OD)” value is 3.1 OD and the DGI-2/LDH amounted to 2.8 ratio. Besides, the “ETAG (OD)” value in assay [1] stood at 35.1 OD. In addition, in assay [2], the “LDH (OD)” value was found to be 1.1 OD.

For the molecule RGSLLLTLPRLSGAVGTAYGAAAGAPVPYPDPLEPRP [DGI-2-20F-PP-B3], in the assay with DGI-2 polypeptide, the “DGI-2 (OD)” value was determined as 3.4 OD and the DGI-2/LDH stood at 3 ratio. Further, the “ETAG (OD)” value in assay [1] came out at 11.7 OD. For the same molecule, the “LDH (OD)” value in assay [2] worked out at 1.1 OD.

For WAASCFWGHVALGCGRNGQG (not fully specified (bridges); cysteine pairing not given here, on M13 phage, pIII fusion with E-tag) [DGI-2-20R-3-A11], the binding result with DGI-2 was “binds”.

In the case of EVFVSVWVFRFRVMPVTPGGTAAAGAPVPYPDPLEPRP [DGI-2-20F-PP-E6], in the assay with DGI-2 polypeptide, the “DGI-2 (OD)” value amounted to 3 OD and the DGI-2/LDH is 2.6 ratio. Also, in assay [1], the “ETAG (OD)” value is 4.1 OD. Also, the “LDH (OD)” value in assay [2] came to 1.2 OD.

Turning to DRSRAPLCADKSGRWQRYRRAAAGAPVPYPDPLEPRP [DGI-2-20F-PP-C10], in the assay with DGI-2 polypeptide, the “DGI-2 (OD)” value is 2.7 OD and the DGI-2/LDH was determined as 3.1 ratio. The “ETAG (OD)” value in assay [1] came to 8.6 OD. For the same molecule, the “LDH (OD)” value in assay [2] was 0.9 OD.

In the case of YAMSSRECGIRNSGLILSMWAAAGAPVPYPDPLEPRP [DGI-2-20F-PP-C9], in the assay with DGI-2 polypeptide, the “DGI-2 (OD)” value was 3.5 OD and the DGI-2/LDH was 3.9 ratio. Besides, in assay [1], the “ETAG (OD)” value turned out to be 31.6 OD. Besides, in assay [2], the “LDH (OD)” value was found to be 0.9 OD.

For GRAGTSMTELVAWGFVQRVGAAAGAPVPYPDPLEPRP [DGI-2-20F-PP-H10], the “ETAG (OD)” value in assay [1] turned out to be 13 OD. The “LDH (OD)” value in assay [2] turned out to be 0.7 OD.

In the case of WVVALRRIRLGLRRGVECLLAAAGAPVPYPDPLEPRP [DGI-2-20F-PP-D5], in the assay with DGI-2 polypeptide, the “DGI-2 (OD)” value turned out to be 2.7 OD and the DGI-2/LDH was 2.3 ratio. Moreover, the “ETAG (OD)” value in assay [1] came out at 33.6 OD. Further, the “LDH (OD)” value in assay [2] was found to be 1.2 OD.

As to SLFERSARSRYHGSPDCNGSAAAGAPVPYPDPLEPRP [DGI-2-20F-PP-A3], in the assay with DGI-2 polypeptide, the “DGI-2 (OD)” value worked out at 2.8 OD and the DGI-2/LDH came out at 2.4 ratio. For the same molecule, in assay [1], the “ETAG (OD)” value was 12.9 OD. Also, in assay [2], the “LDH (OD)” value stood at 1.2 OD.

Turning to VGHLLSRCAHHSPGMGASPYGAAAGAPVPYPDPLEPRP [DGI-2-20F-PP-B11], in the assay with DGI-2 polypeptide, the “DGI-2 (OD)” value came out at 2.6 OD and the DGI-2/LDH turned out to be 2.7 ratio. The “ETAG (OD)” value in assay [1] was found to be 40.8 OD. Further, the “LDH (OD)” value in assay [2] turned out to be 1 OD.

Take GGDLGEQGVQLCPDVVRGGSLAAAGAPVPYPDPLEPRP [DGI-2-20F-PP-A7]: in the assay with DGI-2 polypeptide, the “DGI-2 (OD)” value turned out to be 2.6 OD and the DGI-2/LDH worked out at 2.8 ratio. In addition, in assay [1], the “ETAG (OD)” value is 42.2 OD. Further, in assay [2], the “LDH (OD)” value was determined as 0.9 OD.

Regarding GSTRLRVTVRFCSETGTPGCAAAGAPVPYPDPLEPRP [DGI-2-20F-PP-G6], in the assay with DGI-2 polypeptide, the “DGI-2 (OD)” value was 2.7 OD and the DGI-2/LDH was found to be 2.5 ratio. Further, the “ETAG (OD)” value in assay [1] worked out at 36.1 OD. In assay [2], the “LDH (OD)” value came out at 1.1 OD.

Turning to TFTRDVAGPAVSFVRLHSWNAAAGAPVPYPDPLEPRP [DGI-2-20F-PP-A9], in the assay with DGI-2 polypeptide, the “DGI-2 (OD)” value is 2.7 OD and the DGI-2/LDH turned out to be 2.3 ratio. Moreover, the “ETAG (OD)” value in assay [1] was 40.8 OD. In addition, the “LDH (OD)” value in assay [2] was 1.2 OD.

Take SIILAGCVWVMPCGQNLGGVAAAGAPVPYPDPLEPRP [DGI-2-20F-PP-C4]: in the assay with DGI-2 polypeptide, the “DGI-2 (OD)” value is 3 OD and the DGI-2/LDH is 3.2 ratio. In addition, the “ETAG (OD)” value in assay [1] turned out to be 36.1 OD. Also, in assay [2], the “LDH (OD)” value is 0.9 OD.

Consider GITGLFCLCLRSSQSIAAAGAPVPYPDPLEPRP [DGI-2-20F-P0P-D6], for which, in the assay with DGI-2 polypeptide, the “DGI-2 (OD)” value is 3.3 OD and the DGI-2/LDH came out at 3.2 ratio. Besides, the “ETAG (OD)” value in assay [1] came to 5.7 OD. The “LDH (OD)” value in assay [2] was 1 OD.

In the case of LGRTFVWGTCLHLSVSRFGHAAAGAPVPYPDPLEPRP [DGI-2-20F-PP-C3], in the assay with DGI-2 polypeptide, the “DGI-2 (OD)” value stood at 5.3 OD and the DGI-2/LDH was 5.1 ratio. Further, the “ETAG (OD)” value in assay [1] was 39.9 OD. In assay [2], the “LDH (OD)” value worked out at 1 OD.

Take RSYPRLCKQKGGVIGRMLPGAAAGAPVPYPDPLEPRP [DGI-2-20F-PP-B2]: in the assay with DGI-2 polypeptide, the “DGI-2 (OD)” value stood at 3.3 OD and the DGI-2/LDH turned out to be 2.9 ratio. In addition, the “ETAG (OD)” value in assay [1] came out at 35.9 OD. The “LDH (OD)” value in assay [2] stood at 1.1 OD.
